Data reported in patent publication US20220047715A1, “FORCE-DEPENDENT DRUG RELEASE SYSTEM TO ENHANCE SELECTIVE KILLING AND MINIMIZE ADVERSE EFFECTS IN CANCER TREATMENT” (THE JOHNS HOPKINS UNIVERSITY, priority 2018, published 2022).

Experiments:
[1] = system: CTLA4-CD80 bond; assay: Micropillar-based measurement for CTLA4-CD80 tension; assay type: cell-based, human; details: cancer cells on micropillars, FIG. 3b
Procedure: FIG. 3: Micropillar-based measurement for CTLA4-CD80 tension. (a) A cancer cell is cultured on micropillars. The forces transmitted to the CTLA4-CD80 bond bend the micropillars. (b) Cancer cells can generate ˜2-fold higher stress than normal cells. […] (c) Cancer cells generate 4-fold higher stress transmitted to the CTLA4-CD80 bond compared to integrin-fibronectin bond. Scale bar: 5 μm.
To determine which of the two possibilities described above is likely to be true, we measured the forces CTLA4 exerts on the CD80 upon binding in both normal cells and breast cancer cells. Since trans-endocytosis requires high forces to physically remove CD80 from the cell membrane of the APC, followed by internalization, we tested whether cancer cells yield higher forces if trans-endocytosis is the unique mechanism used by cancer cells to achieve immunosuppression. We tested the human breast cancer cells MDA-MB-231 and their normal counterpart MCF10A cells, as well as the mouse breast cancer cells EO771 and their normal counterpart EPH4-EV, all of which express CTLA4 (FIG. 1). […] We also measured the forces transmitted via CTLA4 in Treg cells purified from mouse spleens. […] Moreover, when HEK293 cells, in which endogenous CTLA4 is not detected, were transfected with CTLA4 cDNA, only minimal level of forces and no trans-endocytosis of CD80 could be recorded (FIG. 2 panel c).

[2] = cited from earlier work

Molecule | force generation transmitted through the CTLA4-CD80 bond [1] | patients experiencing skin lesions, colitis, hepatitis, hypophysitis, thyroiditis and other immune-related events ([2]; Ipilimumab alone, 81 reports, 1265 patients, 22 clinical trials) | patients experiencing adverse events ([2]; one study)
Cc1ccc2c(c1)C(=O)C1(O)CCN(c3ccccc3)C1=N2 (stereo not drawn) [Blebbistatin] | does not inhibit |  | 
Ipilimumab |  | 72% | 85%
